{"source": "the nanobody polyreactivity screen of Harvey et al. (2022)"}
{"assay": "yeast display, Sf9 membrane polyspecificity reagent, FACS + sequencing; frameworks hold sequencing errors", "method_in_brief": "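Galactose-induced (36–48 hours) yeast carrying a synthetic nanobody display library were exposed to 10% biotinylated, detergent-solubilized Sf9 membrane reagent at 4 °C for 1 hour. FACS followed streptavidin microbead enrichment, using low and high (top ~1%) gates for expression (anti-HA) and reagent binding (streptavidin). Colony PCR, MiSeq 2 × 250 sequencing and CDR-length filtering followed. Labels for polyreactivity reflect the gate of origin.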"}
{"sequence": "QVQLVESGGGLVQAGGSLRLSCAASGSIFPHYAMGWYRQAPGKEREFVATISGSTGRTYYADSVKGRFTISRDNAKNTVYLQMNSLKPEDTAVYYCATSVGYYLPPIKYDYWGQGTQVTVSS", "polyreactivity (PSR sort gate)": "low polyreactivity"}
{"sequence": "QVQLVESGGGLVQAGGSLRLSCAASGSIFPIYAMGWYRQAPGKERELVAAISGSGARTYYADSVKGRFTISRDNAKNTVYLQMNSLKPEDTAVYYCNAKYGYDSEARIVKPVRYDYWGQGTQVTVSS", "polyreactivity (PSR sort gate)": "high polyreactivity"}
{"sequence": "QVQLVESGGGLVQAGGSLRLSCAASGSIFPIYAMGWYRQAPGKERELVAGIRGRGGRTYYADSVKGRFTISRDNAKNTVYLQMNSLKPEDTAVYYCAKANLTPQGRGDYDYWGQGTQVTVSS", "polyreactivity (PSR sort gate)": "high polyreactivity"}
{"sequence": "QVQLVESGGGLVQAGGSLRLSCAASGSIFPLYAMGWYRQAPGKERELDASITWSAGNTHYADSVKGRFTISRDNAKNTVYLQMNSLKPEDTAVYYCAADDLWLYYVDDLPINDFDYWGQGTQVTVSS", "polyreactivity (PSR sort gate)": "low polyreactivity"}
{"sequence": "QVQLVESGGGLVQAGGSLRLSCAASGSIFPNNAMGWYRQAPGKERELVAAISSSARTYYADSVKGRFTISRDNAKNTVYLQMNSLKPEDTAVYYCAARWYGRFLMGYWGQGTQVTVSS", "polyreactivity (PSR sort gate)": "high polyreactivity"}
{"sequence": "QVQLVESGGGLVQAGGSLRLSCAASGSIFPNYAMGWYRQAPGKERELVAAISSSGGRTYYADSVKGRFTISRDNAKNTVYLQMNCLKPEDTAVYYCAADTYTSAQHEKYDYWGQGTQVTVSS", "polyreactivity (PSR sort gate)": "low polyreactivity"}
{"sequence": "QVQLVESGGGLVQAGGSLRLSCAASGSIFPPNAMGWSRQAPGKERELVAAISFSGGTSTYYADSVKGRFTISRDNAKNTVYLQMNSLKPEDTAVYYCAARKTTRRYHYDYWGQGTQVTVSS", "polyreactivity (PSR sort gate)": "high polyreactivity"}
{"sequence": "QVQLVESGGGLVQAGGSLRLSCAASGSIFPPNAMGWYRQAPGKEREFVATITGRGGRTYYADSVKGRFTISRDNAKNTVYLQMNSLKPEDTAVYYCAARYTTSSRAKIEYDYWGQGTQVTVSS", "polyreactivity (PSR sort gate)": "high polyreactivity"}
{"sequence": "QVQLVESGGGLVQAGGSLRLSCAASGSIFPRNAMGWYRQAPGKERELVASINSGGSTKYADSVKGRFTISRDNAKNTLYLQMNSLKPEDTAVYYCAAVRPWWRNKPQWPRYDYCGQGTQVTVSS", "polyreactivity (PSR sort gate)": "low polyreactivity"}
{"sequence": "QVQLVESGGGLVQAGGSLRLSCAASGSIFPRNVMGWYRQEPGKERQLVAVITARGGSTYYADSVKGRFTISRDNAKNTVYLQMNSLKPEDTAVYYCATPYSRRKIPPNYDYWGLGTQVTVSS", "polyreactivity (PSR sort gate)": "high polyreactivity"}
{"sequence": "QVQLVESGGGLVQAGGSLRLSCAASGSIFPRYAMGWYRQAPGKERELVAAITSGGSTNYADSVKGRFTISRDNAKNTVYLQMNSLKPDDTAVYYCATVRSLKEGASYFYWGQGTQVTVSS", "polyreactivity (PSR sort gate)": "high polyreactivity"}
{"sequence": "QVQLVESGGGLVQAGGSLRLSCAASGSIFPSNTMGWYRQAPGKERELVATIRWNTGSTYYADSVKGRFTISRDNAKNTVYLQMNSLKPEDTAVYYCAALYVWLWGYRFDYWGQGTQVTVSS", "polyreactivity (PSR sort gate)": "high polyreactivity"}
{"sequence": "QVQLVESGGGLVQAGGSLRLSCAASGSIFPSYAMGWYRLAPGKERELVATISSDGGTNYADSVKGRFTISRDNAKNTVYLQMYSLKPEDTAVYYCATRTTYGQSGSAGPRPYNYWGQGTQVTVSS", "polyreactivity (PSR sort gate)": "low polyreactivity"}
{"sequence": "QVQLVESGGGLVQAGGSLRLSCAASGSIFPSYAMGWYRQAPGKERELVAAISVSGGSTYYADSVKGRFTISRDNAKNTVYLQMNSLKPEDTAVYYCAAQHGYPRYYYWGQGTQVTVSS", "polyreactivity (PSR sort gate)": "high polyreactivity"}
{"sequence": "QVQLVESGGGLVQAGGSLRLSCAASGSIFPSYAMGWYRQAPGKERELVATISGSGTRTYYADSVKGRFTISRDNAKYTFYLQMNSLKPEDTAVYYCAAETHVESGSRDFYTEDYWGQGTQVTVSS", "polyreactivity (PSR sort gate)": "low polyreactivity"}
{"sequence": "QVQLVESGGGLVQAGGSLRLSCAASGSIFPSYAMGWYRQAPGKERELVAVINSGGSTYYADSVKGRFTISRDNAKNTVYFQMNSLKPEDTAVYYCAAYRRRYPRFDYWGQGTQVTVSS", "polyreactivity (PSR sort gate)": "high polyreactivity"}
{"sequence": "QVQLVESGGGLVQAGGSLRLSCAASGSIFPSYAMGWYRQAPRKERELVATIGRGGTTNYADSVKGRFTISRDNAKNTVYLQMNSLKPEDTAVYSCNAERIWRYKDGYDYWGQGTQVTVSS", "polyreactivity (PSR sort gate)": "high polyreactivity"}
{"sequence": "QVQLVESGGGLVQAGGSLRLSCAASGSIFPTYAMGWYRQAPGKERELVAAISWDGDITYYADSVKGRFTISRDHAKNTVYLQMNSLKPEDTAVYYCNASLFIEIYSFQYDDHFAEYGYWGQGTQVTVSS", "polyreactivity (PSR sort gate)": "high polyreactivity"}
{"sequence": "QVQLVESGGGLVQAGGSLRLSCAASGSIFPTYAMGWYRQAPGKERELVAAITGSGGSTYYADSVKGRFTISRDNAKNTVYLQMNSLKPEDTAVYYCAKDVYWYGVWYDYWGQGTQLTVSS", "polyreactivity (PSR sort gate)": "high polyreactivity"}
{"sequence": "QVQLVESGGGLVQAGGSLRLSCAASGSIFPVNAMGWSRQAPGKERELVATITWRGGRTYYADSVKGRFTISRDNAKNTVYLQMNSLKPEDTAVYYCAARLLYRHFGYWGQGTQVTVSS", "polyreactivity (PSR sort gate)": "high polyreactivity"}
{"sequence": "QVQLVESGGGLVQAGGSLRLSCAASGSIFPVYAMGWYRQAPGKERELVAAINSSGGTTYYADSVKGRFTISRDNAKNTVYLQMNSLKPEDTAVYYCAAEISTASYFAKTYDYWGQGTQVTVSS", "polyreactivity (PSR sort gate)": "low polyreactivity"}
{"sequence": "QVQLVESGGGLVQAGGSLRLSCAASGSIFPVYAMGWYRQAPGKERELVAAISWGGGNTYYADSVKGRFTISRDNSKNTVYLQMNSLKPEDTAVYYCNKRSRLGRGNRDYRGQGTQVTVSS", "polyreactivity (PSR sort gate)": "high polyreactivity"}
{"sequence": "QVQLVESGGGLVQAGGSLRLSCAASGSIFPWYAMGWYRPAPGKERELVADITNGSSTNYADSVKGRFTISRDNAKNTVYLQMNSLKPEDTAVYYCARDGIGADGYDYWGQGTQVTVSS", "polyreactivity (PSR sort gate)": "low polyreactivity"}
{"sequence": "QVQLVESGGGLVQAGGSLRLSCAASGSIFPWYAMGWYRQEPGKERELVAAISKSGAGTYYADSVKGRFTISRDTAKNTVYLQMNSLKPEDTAVYYCNARWRSNRAARYDFWGQGTQVTVSS", "polyreactivity (PSR sort gate)": "high polyreactivity"}
{"sequence": "QVQLVESGGGLVQAGGSLRLSCAASGSIFPWYTMGWYRQAPGKERELVAAITSSGGGTYYADSVKGRFTISRDNAKNTVYLQMNSLKPEDTAVYYCAAGLDWGPEYEYWGQGTQVTVSS", "polyreactivity (PSR sort gate)": "low polyreactivity"}
{"sequence": "QVQLVESGGGLVQAGGSLRLSCAASGSIFPYAMGWYRQAPGKERELVAVISWSGASTYYADSVKGRFTISRDNAKNTVYLQMNSLKPEDTAVYYCAVYRYYKLVHLYGYDYWGQGTQVTVSS", "polyreactivity (PSR sort gate)": "high polyreactivity"}
{"sequence": "QVQLVESGGGLVQAGGSLRLSCAASGSIFPYNAMGCYRQAPGKEMELVAVITSSGASTYYADSVKGRFTISLDNSKNTVYLQMNSLKPEDTAVYYCAARGYNYYFGGYDYWGQGTQVTVSS", "polyreactivity (PSR sort gate)": "low polyreactivity"}
{"sequence": "QVQLVESGGGLVQAGGSLRLSCAASGSIFPYYALGWYRQAPGKERELVAAISWSGTSTYYADSVKGRFTISRDNAKNTVYLQMNSLKPEDTAVYYCNAGYYHFYASGYDYWGQGTQVTVSS", "polyreactivity (PSR sort gate)": "low polyreactivity"}
{"sequence": "QVQLVESGGGLVQAGGSLRLSCAASGSIFPYYAMGWYRQAPGKERELVATISNSGGSTYYADSVKGRFTISRDNAKNTVYLQMNSLKPEDTAVYYCAADRGSYPYTGDYWGQGTQVNVSS", "polyreactivity (PSR sort gate)": "low polyreactivity"}
{"sequence": "QVQLVESGGGLVQAGGSLRLSCAASGSIFPYYAMGWYRQAPGKERELVATITYRGGSTNYADSVKGRFTISRDNAKNTVYLQMNSLKPEDTAVYYCAAYGYVLASPYPYSFVKLGYWGQGTQVTVSS", "polyreactivity (PSR sort gate)": "low polyreactivity"}
